Results taken from patent US20110158985A1 (published 2011).
Numbering of substitutions follows the chain as printed. Names may count otherwise. “And” between values parts separate entries of the source, which are not always exact repeats. Equal values may be shown once.

T1: RSV F glycoprotein (NUF4) (respiratory syncytial virus)
T1 chain 1: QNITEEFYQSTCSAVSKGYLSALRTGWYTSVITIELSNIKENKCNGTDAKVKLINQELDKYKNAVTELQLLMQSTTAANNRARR
T1 chain 2: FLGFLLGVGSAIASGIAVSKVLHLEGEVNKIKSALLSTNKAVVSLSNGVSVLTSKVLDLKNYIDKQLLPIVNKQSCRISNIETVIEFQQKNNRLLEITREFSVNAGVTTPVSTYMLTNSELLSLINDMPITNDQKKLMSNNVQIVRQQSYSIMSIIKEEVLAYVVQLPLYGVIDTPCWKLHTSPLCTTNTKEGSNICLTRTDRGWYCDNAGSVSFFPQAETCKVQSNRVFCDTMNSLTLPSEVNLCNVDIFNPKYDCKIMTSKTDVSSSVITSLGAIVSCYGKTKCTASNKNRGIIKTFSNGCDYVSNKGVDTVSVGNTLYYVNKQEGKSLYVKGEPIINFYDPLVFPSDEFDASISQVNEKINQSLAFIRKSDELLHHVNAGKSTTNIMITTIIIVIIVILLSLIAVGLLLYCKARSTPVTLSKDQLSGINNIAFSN

B1: Y10H6 Fab (Fab, V domains shown)
VH: QVTLRESGPALVKPTQTLTLTCTFSGFSLSTAGMSVGWIRQPPGKALEWLADIWWDDKKDYNPSLKSRLTISKDTSKNQVVLKVTNMDPADTATYYCARDMIFNWYFDVWGQGTTVTVSS
VL: DIQMTQSPSTLSASVGDRVTITCSASSSVGYMHWYQQKPGKAPKLLIYDTRYLSSGVPSRFSGSGSGTEFTLTISSLQPDDFATYYCFQGSGYPFTFGGGTKVEIK
B2: DG (aka D95/G93) Fab (Fab, V domains shown)
VH: B1 VH with F103T, W105F
VL: B1 VL with R51F, Y52K, S54A
B3: L1-7E5 Fab (Fab, V domains shown)
VH: B1 VH with F103T, W105F
VL: B1 VL with S28R, R51F, Y52K, S54A
B4: M3H9 Fab (Fab, V domains shown)
VH: B1 VH
VL: B1 VL with R51Y, Y52K, L53Q, S54T
B5: 6H8 Fab (Fab, V domains shown)
VH: B1 VH with F103T, W105F
VL: B1 VL with R51F, Y52K, S54T
B6: P12f4 Fab (Fab, V domains shown)
VH: B1 VH with A32P, D57G, D60H, S67D, W105F
VL: B1 VL with A25L, S28R, Y52G, S54P
B7: H3-3F4 Fab (Fab, V domains shown)
VH: B1 VH
VL: B1 VL with R51F, Y52K, S54A
B8: 1X-493L1FR Fab (Fab, V domains shown)
VH: B1 VH with A32S, D100S, F103T
VL: B1 VL with R51S, Y52K, S54A
notes: also called IX-493L1FR
B9: A1e9 IgG (antibody, V domains shown)
VH: B1 VH with D57G, D60H, S67D
VL: DIQMTQSPSTLSASVGDRVTITCSLSSRVGYMHWYQQKPGKAPKLLIYDTFKLSSGVPSRFSGSGSGTEFTLTISSLQPDDFATYYCFQGSGYPFTFGGGTKVEIKR
notes: also called Ale9
B10: A8c7 IgG (antibody, V domains shown)
VH: B1 VH with D60S, S67D
VL: B9 VL with L25P, F51R, K52Y, L53Q
B11: palivizumab Fab (recombinant) (Fab, V domains shown)
VH: B1 VH with A32S, D100S, F103T, Q112A
VL: B1 VL with S24K, A25C, S26Q, S27L, R51S, Y52K, S54A, V103L
B12: G93Y Fab (Fab, name in Kabat numbering, V domains shown)
VH: B1 VH with A32S, D100S, F103T
VL: B1 VL with R51S, Y52K, S54A, G92Y
B13: S52F Fab (Fab, name in Kabat numbering, V domains shown)
VH: B1 VH with A32S, D100S, F103T
VL: B1 VL with R51F, Y52K, S54A
B14: palivizumab Fab (papain cleavage of palivizumab IgG) (Fab, V domains shown)
VH: B1 VH with A32S, D100S, F103T, Q112A
VL: B1 VL with S24K, A25C, S26Q, S27L, R51S, Y52K, S54A, V103L
notes: also called Palivizumab^a
B15: S52Y Fab (Fab, name in Kabat numbering, V domains shown)
VH: B1 VH with A32S, D100S, F103T
VL: B1 VL with R51Y, Y52K, S54A
B16: G93W Fab (Fab, name in Kabat numbering, V domains shown)
VH: B1 VH with A32S, D100S, F103T
VL: B1 VL with R51S, Y52K, S54A, G92W
B17: A17d4(1) Fab (Fab, V domains shown)
VH: B1 VH with D57G, D60S, S67D, W105F
VL: B1 VL with S24L, A25P, S28R, R51M, L53Q
B18: A8c7 Fab (Fab, V domains shown)
VH: B1 VH with D60S, S67D
VL: B1 VL with A25P, S28R, L53Q
B19: A14a4 Fab (Fab, V domains shown)
VH: B1 VH with D60S, S67D, F103T
VL: B1 VL with S24L, A25L, S28R, R51Y, L53Q, S54T
B20: A4b4 Fab (Fab, V domains shown)
VH: B1 VH with D60H, S67D, W105F
VL: B1 VL with S28R, R51F, Y52F, S54D
B21: A17h4 Fab (Fab, V domains shown)
VH: B1 VH with D57G, D60H, S67D
VL: B1 VL with A25P, R51Y, S54A
B22: A17b5 Fab (Fab, V domains shown)
VH: B1 VH with D60H, S67D
VL: B1 VL with A25L, S28R, R51Y, S54P
B23: A16b4 Fab (Fab, V domains shown)
VH: B1 VH with D60H, S67D
VL: B1 VL with S24L, A25L, S28R, R51M, L53Q, S54A
B24: A3e2 Fab (Fab, V domains shown)
VH: B1 VH with D56G, K59G, D60H, S67D
VL: B1 VL with R51F, S54H

target: RSV F protein (purified) (respiratory syncytial virus); assay: SPR (BIAcore), F protein immobilised

Binder	koff	kon
B1	0.000462 s⁻¹	757000 M⁻¹ s⁻¹
B2	0.000167 s⁻¹ and 0.000444 s⁻¹	
B3	0.000192 s⁻¹ and 0.000331 s⁻¹ and 0.000229 s⁻¹	
B4	0.000338 s⁻¹	605000 M⁻¹ s⁻¹
B5	0.000178 s⁻¹ and 0.000473 s⁻¹	314000 M⁻¹ s⁻¹ and 444000 M⁻¹ s⁻¹
B6	0.000299 s⁻¹	527000 M⁻¹ s⁻¹
B7	0.000445 s⁻¹ and 0.000402 s⁻¹	
B8	0.00065 s⁻¹	185000 M⁻¹ s⁻¹

target: T2, recombinant C-terminally truncated RSV (A2 strain) F protein (RSV (A2 strain), UniProt P03420 26-524); assay: SPR (BIAcore), IgG over immobilised F
T2 construct: extracellular domain; also called truncated F protein; extracellular domain of the F protein from RSV A2

Binder	Kd	koff	kon
B9	0.33 nM	0.000143 s⁻¹	433000 M⁻¹ s⁻¹
B10	0.21 nM	8.75e-05 s⁻¹	417000 M⁻¹ s⁻¹

target: T2, recombinant C-terminally truncated RSV …; assay: SPR (BIAcore), Fab over immobilised F

Binder	Kd	koff	kon
B11	5.25 nM		
B12	0.94 nM	0.000153 s⁻¹	162000 M⁻¹ s⁻¹
B8	3.52 nM	0.000651 s⁻¹	185000 M⁻¹ s⁻¹
B13	0.85 nM	0.000175 s⁻¹	206000 M⁻¹ s⁻¹
B14	6.07 nM		
B15	0.74 nM	0.000125 s⁻¹	170000 M⁻¹ s⁻¹
B16	0.93 nM	0.00014 s⁻¹	150000 M⁻¹ s⁻¹

Target: T1, RSV F glycoprotein (NUF4)
Assay: SPR (BIAcore), mAb vs NUF4 (1:1)

Binder	Kd	fold in parentheses (palivizumab = 1)	koff	kon
B9	0.69 nM	13 fold	0.000584 s⁻¹	843000 M⁻¹ s⁻¹
B10	0.65 nM	13 fold	0.000535 s⁻¹	825000 M⁻¹ s⁻¹

target: T2, recombinant C-terminally truncated RSV …; assay: SPR (BIAcore), Fab over immobilised F; remark: another data set of the same source

Binder	Kd	koff	kon
B17	0.111 nM	5.9e-05 s⁻¹	531000 M⁻¹ s⁻¹
B18	0.464 nM	0.0003 s⁻¹	647000 M⁻¹ s⁻¹
B11	5.25 nM		
B19	0.723 nM	0.00024 s⁻¹	332000 M⁻¹ s⁻¹
B20	0.086 nM	5.2e-05 s⁻¹	604000 M⁻¹ s⁻¹
B21	0.202 nM	0.000105 s⁻¹	519000 M⁻¹ s⁻¹
B22	0.124 nM	7.3e-05 s⁻¹	590000 M⁻¹ s⁻¹
B23	0.214 nM	0.000105 s⁻¹	490000 M⁻¹ s⁻¹
B24	0.157 nM	9.4e-05 s⁻¹	599000 M⁻¹ s⁻¹

target: T3, F protein of RSV (Long strain) (RSV (Long strain), UniProt P12568 26-574); assay: cell-based or functional assay

Binder	Microneutralization IC50, Fab
B11	27.5 µg/ml and 549 nM
B12	6.26 µg/ml and 125 nM
B8	26.3 µg/ml and 526 nM
B13	7.27 µg/ml and 1.45 µM
B15	5.99 µg/ml and 120 nM
B16	6.57 µg/ml and 131 nM

Target: T1, RSV F glycoprotein (NUF4)
Assay: SPR (BIAcore), mAb vs NUF4 (2:1)

Binder	Kd	fold in parentheses (palivizumab = 1)	koff	kon
B9	4.22 nM	74 fold	0.00139 s⁻¹	329000 M⁻¹ s⁻¹
B10	2.65 nM	118 fold	0.00114 s⁻¹	430000 M⁻¹ s⁻¹

target: Bac-F (respiratory syncytial virus); assay: SPR (BIAcore), mAb vs Bac-F (1:1)

Binder	Kd	fold in parentheses (palivizumab = 1)
B9	0.33 nM	12 fold
B10	0.21 nM	19 fold

target: T3, F protein of RSV (Long strain); assay: cell-based or functional assay; remark: another data set of the same source

Binder	Microneutralization IC50, IgG	Microneutralization IC50, Fab
B9	0.0625 µg/ml and 0.42 nM	
B17		0.0179 µg/ml and 0.36 nM
B18		0.177 µg/ml and 3.54 nM
B11		27.5 µg/ml and 549 nM
B19		> 0.4 µg/ml and > 8 nM
B20		0.414 µg/ml and 0.83 nM
B22		0.406 µg/ml and 0.92 nM
B10	0.0337 µg/ml and 0.22 nM	

target: T3, F protein of RSV (Long strain); assay: cell-based or functional assay; remark: another data set of the same source

Binder	Mean IC50 (Control)	Mean IC50 (Curve)
B9	0.0645 µg/mL	0.0625 µg/mL
B17	0.0171 µg/mL	0.0179 µg/mL
B18	0.157 µg/mL	0.177 µg/mL
B20	0.0411 µg/mL	0.0414 µg/mL
B10	0.0383 µg/mL	0.0337 µg/mL
